Substrate in the data set: O=[N+]([O-])c1ccc(O[C@@H]2O[C@@H](CO)[C@H](O)[C@H]2O)cc1
As to the kind of experiment: purified protein. The class given is biochemical, Alicyclobacillus sp. A4. Conditions: pH 6.0, McIlvaine buffer, 60 °C, 5 min, substrate 1-10 mM.

B1: Ac-Abf51A (Alicyclobacillus sp. A4) (protein)
chain: MSKSIARMTIDPQYQLADVDPRLFGSFIEHLGRAVYGGIYEPDHPSADEMGFRQDVLELVRELQVPIVRYPGGNFVSGYRWEDGVGPLASRPAQLDLAWRSLEPNRVGVNEFVEWAKRANSEVMMAVNLGTRGIDEAKQIVEYCNHPGGSYWSDLRKSHGYEQPHGIKVWCLGNEMDGPWQIGHKTAEEYGRIAEEAAKVMKWVDPSIELVACGSSGSKMPTFPDWERIVLEHTYDHVEYISMHSYYGNRENDLATYLAQSLDMDHFIRSVIATCDYVKAKKRSKKTINISFDEWNVWFHSNEADKQVAPWQVGPPLLEDVYTFEDALVVGCLLITLLRHADRVKMACLAQLVNVIAPIMTENGGVSWKQTIYYPFLHASRYGRGKVMHCSLQSPKYDCKEFTDVPLVESVAVWNQDIAELTIFAVNRSQDGGIELECDIRGFAQASVIEHTVLVHSDLKAANTKEEPQEVIPQHAQGAKVDGGLLFAPLPKLSWNVIRLRV
notes: no signal peptide; pET-30a(+) NdeI/NotI, C-terminal His tag inferred from cloning; E. coli BL21(DE3); Ni-NTA
Broadly, the Km is the substrate concentration at which the rate is half of its maximum. By kcat is commonly meant the number of substrate molecules converted per active site and unit of time at saturation. Consider B1, for which the Km worked out at 460 µM and the kcat worked out at 23.0 s⁻¹.

These data come from paper PMC4666033, “A novel bifunctional GH51 exo-α-L-arabinofuranosidase/endo-xylanase from Alicyclobacillus sp. A4 with significant biomass-degrading capacity” (Biotechnology for Biofuels, 2015).
